Results as given in PMC9454804.

How the values were obtained:
[1] = biological target: Vascular Endothelial Growth Factor Receptor 1 (VEGFR1) (mouse (endogenous in C57BL/6 and eNOS-KO skeletal muscle)) (UniProt P35969)
[2] = biological target: Vascular Endothelial Growth Factor Receptor 1 (VEGFR1) (mouse (endogenous in C57BL/6 and eNOS-KO skeletal muscle)) (UniProt P35969); remark: listed apart in the source
[3] = biological target: Vascular Endothelial Growth Factor Receptor 1 (VEGFR1) (mouse (endogenous in C57BL/6 and eNOS-KO skeletal muscle)) (UniProt P35969); remark: listed apart in the source

Chain of UniProt P35969 (P35969 23-1333 S1181G): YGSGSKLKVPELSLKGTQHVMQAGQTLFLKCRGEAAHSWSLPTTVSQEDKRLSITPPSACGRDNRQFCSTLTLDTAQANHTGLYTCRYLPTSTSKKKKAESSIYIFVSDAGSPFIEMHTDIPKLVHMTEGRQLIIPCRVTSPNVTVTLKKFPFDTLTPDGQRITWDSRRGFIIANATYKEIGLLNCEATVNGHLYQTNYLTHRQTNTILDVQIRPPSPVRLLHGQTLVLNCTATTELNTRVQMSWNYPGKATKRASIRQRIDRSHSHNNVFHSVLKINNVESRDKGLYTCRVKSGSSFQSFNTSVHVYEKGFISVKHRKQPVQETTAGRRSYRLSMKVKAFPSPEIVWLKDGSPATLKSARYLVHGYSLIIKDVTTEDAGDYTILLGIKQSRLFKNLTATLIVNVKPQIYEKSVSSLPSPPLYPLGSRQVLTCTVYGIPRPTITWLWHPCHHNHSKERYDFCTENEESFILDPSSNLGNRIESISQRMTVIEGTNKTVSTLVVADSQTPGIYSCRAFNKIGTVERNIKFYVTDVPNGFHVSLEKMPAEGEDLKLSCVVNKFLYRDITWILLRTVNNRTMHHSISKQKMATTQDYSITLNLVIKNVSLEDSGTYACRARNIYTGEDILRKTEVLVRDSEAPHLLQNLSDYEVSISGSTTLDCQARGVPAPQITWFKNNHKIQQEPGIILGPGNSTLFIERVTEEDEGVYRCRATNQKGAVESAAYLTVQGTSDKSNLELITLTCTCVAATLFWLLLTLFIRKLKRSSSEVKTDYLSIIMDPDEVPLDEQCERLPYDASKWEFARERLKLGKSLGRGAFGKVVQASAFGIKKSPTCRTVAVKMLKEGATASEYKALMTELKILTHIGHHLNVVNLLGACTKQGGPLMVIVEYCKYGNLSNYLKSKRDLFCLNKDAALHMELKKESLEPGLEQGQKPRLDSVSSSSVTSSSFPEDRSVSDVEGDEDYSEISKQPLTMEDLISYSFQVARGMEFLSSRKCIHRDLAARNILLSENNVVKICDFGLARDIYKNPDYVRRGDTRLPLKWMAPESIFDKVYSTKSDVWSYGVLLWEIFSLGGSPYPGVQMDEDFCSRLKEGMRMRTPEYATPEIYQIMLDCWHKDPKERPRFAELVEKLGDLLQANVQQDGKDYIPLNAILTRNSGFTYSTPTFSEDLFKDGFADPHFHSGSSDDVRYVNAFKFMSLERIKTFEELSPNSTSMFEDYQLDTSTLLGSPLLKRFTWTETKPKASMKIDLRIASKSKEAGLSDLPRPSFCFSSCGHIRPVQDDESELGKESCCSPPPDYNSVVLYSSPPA

A pSTAT3 activation, HFD-ischemic muscle treated with VEGF165b-Ab vs. IgG at day 3 post-HLI [1] of 1.5 fold, a pVEGFR1(Y1333) activation, HFD-ischemic muscle treated with VEGF165b-Ab vs. IgG at day 3 post-HLI [1] of 1.5 fold and a pVEGFR1(Y1333) activation in VEGFR1 pull-down fractions, non-ischemic HFD vs. non-ischemic normal chow muscle [2] of 1.5 fold were found for “anti-angiogenic VEGF-A isoform VEGF165b (ligand)” in this work. For the same substance, the pSTAT3 activation, eNOS-KO ischemic muscle treated with VEGF165b-Ab vs. IgG [3] was 1.4 fold and the pVEGFR1(Y1333) activation in VEGFR1 pull-down fractions, eNOS-KO ischemic muscle treated with VEGF165b-Ab vs. IgG [3] was 1.3 fold.
